In the supplement of paper PMC12338614:
± gives the uncertainty stated by the source.

B1: library; numbered along this chain (parent)
chain: MEVVDPQQLGMFTEGELMSVGMDTFIHRIDSTEVIYQPRRKRAKLIGKYLMGDLLGEGSYGKVKEVLDSETLCRRAVKILKKKKLRRIPNGEANVKKEIQLLRRLRHKNVIQLVDVLYNEEKQKMYMVMEYCVCGMQEMLDSVPEKRFPVCQAHGYFCQLIDGLEYLHSQGIVHKDIKPGNLLLTTGGTLKISDLGVAEALHPFAADDTCRTSQGSPAFQPPEIANGLDTFSGFKVDIWSAGVTLYNITTGLYPFEGDNIYKLFENIGKGSYAIPGDCGPPLSDLLKGMLEYEPAKRFSIRQIRQHSWFRKKHPPAEAPVPIPPSPDTKDRWRSMTVVPYLEDLHGADEDEDLFDIEDDIIYTQDFTVPGQVPEEEASHNGQRRGLPKAVCMNGTEAAQLSTKSRAEGRAPNPARKACSASSKIRRLSACKQQ

Variants of: B1
Assay: STK11 functional score (HeLa growth suppression), rescaled enrichment; synonymous median = 1, nonsense median = 0 (normalised score)
Conditions: with HeLa; variant type: missense
Protocol: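 Deep mutational scan (TileSeq/POPCode codon randomisation) of full-length codon-optimised STK11 cDNA integrated at a Bxb1 landing pad (AAVS1) in HeLa cells. Restoring functional STK11 suppresses HeLa proliferation. Variant frequencies were measured by NGS before and after about two weeks of growth. The error-corrected enrichment log-ratio was rescaled so that synonymous median = 1 and nonsense median = 0, scores above 1 were compressed, and codon-level and three biological replicate scores were combined; error is the bootstrapped standard error. Scale: synonymous median = 1, nonsense median = 0; below 0.5 = damaging.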
Work on K388P yielded an STK11 functional score of 0.884 ± 0.37. R383Y gave an STK11 functional score of 1.25 ± 0.54. Variant R383F has an STK11 functional score of 1.2 ± 0.17. With T212H the STK11 functional score was 1.59 ± 0.41. T212I showed an STK11 functional score of 1.13 ± 0.55. With M51R the STK11 functional score was 1.16 ± 0.5. In the case of I29M, the STK11 functional score is reported as 0.901 ± 0.47. I29T showed an STK11 functional score of 0.53 ± 0.082. In the case of M289Y, the STK11 functional score is reported as -0.218 ± 0.07. For G180F, the STK11 functional score was 0.804 ± 0.068. D355P was tested, and the STK11 functional score was 1.53 ± 0.2. With G268P the STK11 functional score was 1.07 ± 0.18. Work on I88D yielded an STK11 functional score of 1.58 ± 0.25. G56H was tested, and the STK11 functional score was 0.0953 ± 0.25. In the case of L282A, the STK11 functional score is reported as 0.846 ± 0.18. Work on A295D yielded an STK11 functional score of 1.21 ± 0.17. V3D showed an STK11 functional score of -0.174 ± 0.11. A76L was tested, and the STK11 functional score was -0.332 ± 0.077. With A76I the STK11 functional score was 1.4 ± 0.15. L117N gave an STK11 functional score of 1.44 ± 0.56. Q137A gave an STK11 functional score of 1.02 ± 0.15. Q137H showed an STK11 functional score of 0.922 ± 0.5. L9V was tested, and the STK11 functional score was 0.506 ± 0.58. For K431Y, the STK11 functional score was 1.48 ± 0.18. A389K was tested, and the STK11 functional score was 1.61 ± 0.17. Variant D330M has an STK11 functional score of 1.58 ± 0.17. With M18Q the STK11 functional score was 1.28 ± 0.12. M18T showed an STK11 functional score of 1.62 ± 0.27. Work on M18I yielded an STK11 functional score of 0.652 ± 0.32. Variant Q302S has an STK11 functional score of 1.47 ± 0.16. S421N gave an STK11 functional score of 1.6 ± 0.15. L228R showed an STK11 functional score of 1.68 ± 0.26. Variant S283R has an STK11 functional score of 1.29 ± 0.41. P373S showed an STK11 functional score of 1.44 ± 0.32. In the case of P373N, the STK11 functional score is reported as 1.59 ± 0.28. With H202W the STK11 functional score was 0.389 ± 0.18. In the case of G346H, the STK11 functional score is reported as 1.6 ± 0.14. For G346K, the STK11 functional score was 1.61 ± 0.25. N94C gave an STK11 functional score of 1.1 ± 0.2. Work on N94F yielded an STK11 functional score of 0.728 ± 0.22. N94R was tested, and the STK11 functional score was 1.37 ± 0.14. In the case of N94D, the STK11 functional score is reported as 1.31 ± 0.14. For V63L, the STK11 functional score was 0.458 ± 0.099. For K82G, the STK11 functional score was 1.23 ± 0.17. E223C was tested, and the STK11 functional score was 1.03 ± 0.53. In the case of E223Q, the STK11 functional score is reported as 0.735 ± 0.22. With S299T the STK11 functional score was 1.55 ± 0.16. Variant S299R has an STK11 functional score of 1.53 ± 0.18. H313S was tested, and the STK11 functional score was 1.17 ± 0.15. For P387H, the STK11 functional score was 1.45 ± 0.26. For E145S, the STK11 functional score was 1.45 ± 0.096. V368E was tested, and the STK11 functional score was 1.42 ± 0.22. T249I gave an STK11 functional score of 0.664 ± 0.24. Work on L286H yielded an STK11 functional score of 0.00834 ± 0.071. In the case of L184P, the STK11 functional score is reported as 0.189 ± 0.18. Variant L167K has an STK11 functional score of 0.0279 ± 0.15. Work on F231H yielded an STK11 functional score of 0.765 ± 0.42. F231A gave an STK11 functional score of 1.61 ± 0.26. F231N showed an STK11 functional score of 1.69 ± 0.13. With A225S the STK11 functional score was 1.06 ± 0.29. V337K showed an STK11 functional score of 1.53 ± 0.18. With V337S the STK11 functional score was 0.723 ± 0.17. For L344T, the STK11 functional score was 1.56 ± 0.17. L344F was tested, and the STK11 functional score was 0.831 ± 0.38. R409L was tested, and the STK11 functional score was 1.02 ± 0.54. For K175N, the STK11 functional score was 0.914 ± 0.55. Variant Q364V has an STK11 functional score of 1.11 ± 0.14. Q364G gave an STK11 functional score of 0.7 ± 0.2. V338P gave an STK11 functional score of 1.54 ± 0.18. Work on V338A yielded an STK11 functional score of 1.56 ± 0.27. E396R gave an STK11 functional score of 1.53 ± 0.22. E396D showed an STK11 functional score of 1.45 ± 0.49. A43G was tested, and the STK11 functional score was 0.859 ± 0.32. Work on A43S yielded an STK11 functional score of 1.34 ± 0.25. For A43L, the STK11 functional score was 1.58 ± 0.34. Variant A43W has an STK11 functional score of 1.06 ± 0.11. With I356N the STK11 functional score was 1.45 ± 0.62. Work on Y60V yielded an STK11 functional score of 0.694 ± 0.2. H174Y showed an STK11 functional score of 1.11 ± 0.27. C418H was tested, and the STK11 functional score was 1.17 ± 0.18. A153Y showed an STK11 functional score of -0.0988 ± 0.073. D30H gave an STK11 functional score of 1.31 ± 0.68. D30C gave an STK11 functional score of 1.44 ± 0.51. D30R gave an STK11 functional score of 1.69 ± 0.13. A200C showed an STK11 functional score of 1.13 ± 0.096. For A200R, the STK11 functional score was 0.878 ± 0.12. In the case of E342C, the STK11 functional score is reported as 1.21 ± 0.35. With D343N the STK11 functional score was 1.02 ± 0.59. For D343S, the STK11 functional score was 1.35 ± 0.16. With F354M the STK11 functional score was 1.51 ± 0.23. In the case of Q123S, the STK11 functional score is reported as 1.49 ± 0.17. For P254Y, the STK11 functional score was 0.0833 ± 0.12. With N119G the STK11 functional score was 0.965 ± 0.23. For N119E, the STK11 functional score was 0.994 ± 0.093. For N119P, the STK11 functional score was 1.37 ± 0.29. For R75V, the STK11 functional score was 1.27 ± 0.37. Variant I260E has an STK11 functional score of -0.179 ± 0.42. Work on I260L yielded an STK11 functional score of 1.28 ± 0.27. Work on K124I yielded an STK11 functional score of 1.51 ± 0.15. P89C gave an STK11 functional score of 1.29 ± 0.072. Variant R40G has an STK11 functional score of 1.19 ± 0.27. R40V gave an STK11 functional score of 1.64 ± 0.25. Work on L45F yielded an STK11 functional score of 1.1 ± 0.26. In the case of P369S, the STK11 functional score is reported as 1.51 ± 0.22. In the case of F264Y, the STK11 functional score is reported as 1.06 ± 0.16. For K44A, the STK11 functional score was 1.57 ± 0.37. Variant K44S has an STK11 functional score of 1.4 ± 0.21. K44Q was tested, and the STK11 functional score was 1.24 ± 0.31. Variant Y292F has an STK11 functional score of 0.991 ± 0.22. T244L showed an STK11 functional score of 1.02 ± 0.094. In the case of E375V, the STK11 functional score is reported as 1.27 ± 0.12. E375N gave an STK11 functional score of 1.47 ± 0.16. For N380M, the STK11 functional score was 1.55 ± 0.12. With N380P the STK11 functional score was 1.59 ± 0.26. N380R showed an STK11 functional score of 1.56 ± 0.24. With S31R the STK11 functional score was 1.54 ± 0.28. N90V showed an STK11 functional score of 1.17 ± 0.3. A316M showed an STK11 functional score of 1 ± 0.69. In the case of A218Q, the STK11 functional score is reported as 1.25 ± 0.29. T185V was tested, and the STK11 functional score was 0.913 ± 0.25. Variant V95E has an STK11 functional score of 0.927 ± 0.43. For V95S, the STK11 functional score was 1.4 ± 0.18. T209H showed an STK11 functional score of 1.34 ± 0.18. In the case of Q220V, the STK11 functional score is reported as 0.924 ± 0.23. Work on Q220R yielded an STK11 functional score of 0.808 ± 0.13. For K312Q, the STK11 functional score was 1.58 ± 0.37. In the case of K312A, the STK11 functional score is reported as 1.25 ± 0.3. In the case of K312M, the STK11 functional score is reported as 1.45 ± 0.19. With S142V the STK11 functional score was 1.51 ± 0.23. In the case of S142Q, the STK11 functional score is reported as 1.69 ± 0.26. For S142L, the STK11 functional score was 1.16 ± 0.2. With I177V the STK11 functional score was 1.06 ± 0.19. For I177D, the STK11 functional score was 0.0262 ± 0.27. In the case of I177F, the STK11 functional score is reported as 0.54 ± 0.074. D115R gave an STK11 functional score of 1.52 ± 0.27. R106E showed an STK11 functional score of 1.63 ± 0.29. For Q7C, the STK11 functional score was 1.55 ± 0.45. Variant Q7R has an STK11 functional score of 1.38 ± 0.13. For F157W, the STK11 functional score was 0.714 ± 0.12. Variant L101V has an STK11 functional score of 0.836 ± 0.1. Work on W332S yielded an STK11 functional score of 1.21 ± 0.33. Work on K62D yielded an STK11 functional score of 1.61 ± 0.2. Variant Y272F has an STK11 functional score of 1.27 ± 0.13. Variant Y272R has an STK11 functional score of 0.701 ± 0.25. Y272L showed an STK11 functional score of 0.641 ± 0.46. Y272N was tested, and the STK11 functional score was 1.71 ± 0.45. With Y340F the STK11 functional score was 1.04 ± 0.49. With Y340I the STK11 functional score was 0.334 ± 0.27. For A273R, the STK11 functional score was 1.13 ± 0.38. For R331W, the STK11 functional score was 1.49 ± 0.27. For R331D, the STK11 functional score was 1.24 ± 0.36. Variant D350N has an STK11 functional score of 1.07 ± 0.72. L183S showed an STK11 functional score of 0.646 ± 0.4. T395Q showed an STK11 functional score of 1.5 ± 0.32. With T395F the STK11 functional score was 0.847 ± 0.36. For F255A, the STK11 functional score was 1.31 ± 0.29. Work on F255C yielded an STK11 functional score of 0.921 ± 0.12. N393M showed an STK11 functional score of 1.48 ± 0.24. Variant L182P has an STK11 functional score of -0.0858 ± 0.071. S401M gave an STK11 functional score of 1.44 ± 0.2. With S401G the STK11 functional score was 0.991 ± 0.7. Y253D showed an STK11 functional score of 0.768 ± 0.37. With Y253G the STK11 functional score was 0.758 ± 0.17. M139D was tested, and the STK11 functional score was -0.172 ± 0.088. For M139Y, the STK11 functional score was 1.53 ± 0.46. In the case of E65P, the STK11 functional score is reported as 0.657 ± 0.32. For Q159W, the STK11 functional score was 0.972 ± 0.42.
